Here are results for one molecule from patent publication US20220332804A1 (CSL INNOVATION, published 2022).

Numbering of substitutions follows the chain as printed.

Test in all cases: SPR, KD relative to WT C2;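 note: biacore SPR at 37 °C, anti-C2 mAbs captured via immobilised goat anti-human IgG, C2 alanine or serine surface mutants as analytes, 1:1 model fitted, double-referenced sensograms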
(In general: Surface plasmon resonance follows binding to a sensor surface in real time, without labels.)

One assay deals with T1, human C2 A326S (human, UniProt P06681 21-752).
T1 sequence: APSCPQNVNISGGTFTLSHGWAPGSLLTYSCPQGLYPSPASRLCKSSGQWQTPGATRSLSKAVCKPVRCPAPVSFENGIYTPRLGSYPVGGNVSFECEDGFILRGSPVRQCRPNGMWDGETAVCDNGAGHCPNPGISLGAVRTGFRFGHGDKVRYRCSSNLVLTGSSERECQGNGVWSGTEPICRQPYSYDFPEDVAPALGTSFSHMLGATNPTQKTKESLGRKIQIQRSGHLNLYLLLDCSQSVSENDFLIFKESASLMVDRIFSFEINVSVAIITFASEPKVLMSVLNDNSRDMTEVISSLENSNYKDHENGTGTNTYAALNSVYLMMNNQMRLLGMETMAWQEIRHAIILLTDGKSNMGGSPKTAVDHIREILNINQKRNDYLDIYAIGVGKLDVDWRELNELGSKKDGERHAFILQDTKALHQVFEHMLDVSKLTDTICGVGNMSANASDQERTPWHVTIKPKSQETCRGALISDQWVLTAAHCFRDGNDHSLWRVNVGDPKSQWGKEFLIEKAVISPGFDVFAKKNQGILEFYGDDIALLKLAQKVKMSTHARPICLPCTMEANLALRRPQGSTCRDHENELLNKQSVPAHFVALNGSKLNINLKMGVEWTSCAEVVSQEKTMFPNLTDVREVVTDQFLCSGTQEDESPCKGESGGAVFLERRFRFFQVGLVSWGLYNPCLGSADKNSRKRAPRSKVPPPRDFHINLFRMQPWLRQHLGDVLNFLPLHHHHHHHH

The next assay deals with T2, human C2 L453A (human, UniProt P06681 21-752).
T2 sequence: T1 sequence with S306A, L433A

The next assay concerns the target T3, human C2 D269A (human, UniProt P06681 21-752).
T3 sequence: T1 sequence with D249A, S306A

The next assay concerns the target T4, human C2 T483A (human, UniProt P06681 21-752).
T4 sequence: T1 sequence with S306A, T463A

B1: RF16-226 (antibody, human IgG4 S228P, lambda)
heavy: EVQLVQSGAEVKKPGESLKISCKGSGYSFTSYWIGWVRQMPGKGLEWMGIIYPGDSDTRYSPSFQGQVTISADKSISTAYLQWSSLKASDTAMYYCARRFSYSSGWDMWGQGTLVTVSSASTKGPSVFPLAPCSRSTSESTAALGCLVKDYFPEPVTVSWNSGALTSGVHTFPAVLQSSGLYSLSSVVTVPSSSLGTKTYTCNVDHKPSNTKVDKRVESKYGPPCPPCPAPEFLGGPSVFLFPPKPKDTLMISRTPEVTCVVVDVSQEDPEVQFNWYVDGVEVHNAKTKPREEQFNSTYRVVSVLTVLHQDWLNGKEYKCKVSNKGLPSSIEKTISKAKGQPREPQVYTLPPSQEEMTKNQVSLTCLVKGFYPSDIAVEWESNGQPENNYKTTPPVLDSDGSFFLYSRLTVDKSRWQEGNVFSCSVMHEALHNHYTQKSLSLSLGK
light: SYELTQPPSVSVSPGQTARITCSGDALTSKYVAWYQQKSGLAPLLVIYEDTRRPSGIPAKFSGSSSGSVATLTISGAHGDDEADYYCYSTDASGHQRVFGGGTKLTVLSQPKAAPSVTLFPPSSEELQANKATLVCLISDFYPGAVTVAWKADGSPVKAGVETTKPSKQSNNKYAASSYLSLTPEQWKSHRSYSCQVTHEGSTVEKTVAPTECS
notes: pH-dependent anti-C2 antibody from a phage display library; also called WT
On to B1, for which the Fold diff in the assay with human C2 A326S turned out to be 1 fold; in the assay with human C2 L453A it was 3 fold; with human C2 D269A it was 1 fold; with human C2 T483A, 1 fold.
